These results are taken from patent US20200317768A1 (published 2020).

Substitutions are numbered along the chain they refer to.

Holding throughout (assay): SPR (BIACORE), antibody captured, FcgR analyte
(In SPR one partner is held on a chip, and binding of the other changes the refractive index at the surface.)

The target of experiment [1] is T1, cynomolgus monkey FcγRIIa2 extracellular domain with C-terminal His-tag (cynomolgus monkey).
T1 construct: also called cyno FcgRIIa2; cynoFcγRIIa2
T1 chain: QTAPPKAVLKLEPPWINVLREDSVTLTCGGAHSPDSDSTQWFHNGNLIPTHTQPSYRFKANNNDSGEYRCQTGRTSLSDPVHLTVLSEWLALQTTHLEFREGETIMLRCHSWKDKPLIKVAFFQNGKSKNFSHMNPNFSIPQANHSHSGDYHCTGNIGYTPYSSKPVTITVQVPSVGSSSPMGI
How it is done: (§1) The kinetic analysis of interactions between these antibodies and FcγR was carried out using BIACORE® T200 or BIACORE® 4000 (GE Healthcare). HBS-EP+ (GE Healthcare) was used as the running buffer, and the measurement temperature was set to 25° C. A chip produced by immobilizing Protein A. Protein A/G or mouse anti-human IgG kappa light chain (BD Biosciences) onto a Series S Sensor Chip CM4 or CM5 (GE Healthcare) by the amine-coupling method was used. […] After the measurement, the antibody captured on the chip was washed off by allowing reaction with 10 mM glycine-HCl, pH1.5 and 25 mM NaOH so that the chip was regenerated and used repeatedly. The sensorgrams obtained as measurement results were analyzed by the 1:1 Langmuir binding model using the BIACORE® Evaluation Software to calculate the binding rate constant ka (L/mol/s) and dissociation rate constant kd (l/s), and the dissociation constant KD (mol/L) was calculated from these values. […] Regarding such interactions, KD values were calculated using the following 1:1 binding model described in BIACORE® T100 Software Handbook BR1006-48 Edition AE.
(§2) The behavior of interacting molecules according to the 1:1 binding model on BIACORE® can be described by Equation 1: Req=C·R max/(KD+C)+RI, wherein, Req is a plot of steady-state binding levels to analyte concentration. C is concentration, RI is bulk refractive index contribution in the sample, and Rmax is analyte binding capacity of the surface. When this equation is rearranged, KD can be expressed as Equation 2: KD=C·Rmax/(Req−RI)−C. KD can be calculated by substituting the values of Rmax, RI, and C into Equation 1 or Equation 2. From the current measurement conditions, RI=0, C=2 μmol/L can be used.

The target in experiment [2] is T2, human FcγRIIaR extracellular domain with C-terminal His-tag (human, UniProt P12318 34-217).
T2 construct: also called human FcgRIIaR; FcγRIIa (type R)
T2 chain: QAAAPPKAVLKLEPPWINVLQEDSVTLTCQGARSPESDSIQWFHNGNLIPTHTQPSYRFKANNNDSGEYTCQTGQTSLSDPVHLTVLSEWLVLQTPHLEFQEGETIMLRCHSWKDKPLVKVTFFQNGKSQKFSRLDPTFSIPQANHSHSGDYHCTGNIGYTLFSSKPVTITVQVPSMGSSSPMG
How it is done:
as §1, §2

For experiment [3], the target named is T3, cynomolgus monkey FcγRIIa1 extracellular domain with C-terminal His-tag (cynomolgus monkey).
T3 construct: also called cyno FcgRIIa1; cynoFcγRIIa1
T3 chain: T1 chain with T95P, A121T, K127I, S128A, N130K, N135D, Q142R
How it is done: as §1, §2

The target of experiment [4] is T4, cynomolgus monkey FcγRIIIaS extracellular domain with C-terminal His-tag (cynomolgus monkey, UniProt Q8SPW2 21-206 at identity 1.00)).
T4 construct: also called cyno FcgRIIIaS; cynoFcγRIIIaS
T4 chain: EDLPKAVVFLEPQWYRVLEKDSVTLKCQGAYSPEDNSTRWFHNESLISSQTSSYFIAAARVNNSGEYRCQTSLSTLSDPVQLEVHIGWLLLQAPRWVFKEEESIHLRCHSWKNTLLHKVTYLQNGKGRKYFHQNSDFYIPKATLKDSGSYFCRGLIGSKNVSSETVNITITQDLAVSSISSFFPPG
The protocol:
as §1, §2

For experiment [5], the target named is T5, human FcγRIIIaV extracellular domain with C-terminal His-tag (human, UniProt P08637 17-208).
T5 construct: also called human FcgRIIIaV
T5 sequence (P08637 17-208 F176V): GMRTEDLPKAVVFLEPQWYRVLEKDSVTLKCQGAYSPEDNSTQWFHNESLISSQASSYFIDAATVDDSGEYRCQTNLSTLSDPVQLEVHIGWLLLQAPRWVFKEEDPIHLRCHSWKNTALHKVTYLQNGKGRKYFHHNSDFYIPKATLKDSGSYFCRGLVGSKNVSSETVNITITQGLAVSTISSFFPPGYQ
How it is done:
as §1, §2

In experiment [6] the target is T6, human FcγRIIb extracellular domain with C-terminal His-tag (human, UniProt P31994 43-217).
T6 construct: also called human FcgRIIb
T6 sequence: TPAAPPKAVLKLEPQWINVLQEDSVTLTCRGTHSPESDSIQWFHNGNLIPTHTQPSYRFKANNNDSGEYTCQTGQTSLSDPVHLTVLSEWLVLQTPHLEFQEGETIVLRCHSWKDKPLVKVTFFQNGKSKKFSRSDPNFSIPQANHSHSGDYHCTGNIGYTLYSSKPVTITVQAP
How it is done:
as §1, §2

In experiment [7] the target is T7, human FcγRIIaH extracellular domain with C-terminal His-tag (human, UniProt P12318 34-217).
T7 construct: also called human FcgRIIaH; FcγRIIa (type H)
T7 sequence: T2 chain with R134H
How it is done: as §1, §2

For experiment [8], the target named is T8, cynomolgus monkey FcγRIIb extracellular domain with C-terminal His-tag (cynomolgus monkey).
T8 construct: also called cyno FcgRIIb; cynoFcγRIIb
T8 chain: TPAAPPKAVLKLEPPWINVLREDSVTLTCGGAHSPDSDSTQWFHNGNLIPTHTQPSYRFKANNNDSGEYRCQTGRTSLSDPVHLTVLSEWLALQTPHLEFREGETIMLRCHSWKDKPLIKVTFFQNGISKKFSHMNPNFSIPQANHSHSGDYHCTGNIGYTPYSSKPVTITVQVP
How it is done: as §1, §2

B1: MS_M103205H795-SG1/M103202L889-SK1 (antibody, human IgG1, kappa)
heavy: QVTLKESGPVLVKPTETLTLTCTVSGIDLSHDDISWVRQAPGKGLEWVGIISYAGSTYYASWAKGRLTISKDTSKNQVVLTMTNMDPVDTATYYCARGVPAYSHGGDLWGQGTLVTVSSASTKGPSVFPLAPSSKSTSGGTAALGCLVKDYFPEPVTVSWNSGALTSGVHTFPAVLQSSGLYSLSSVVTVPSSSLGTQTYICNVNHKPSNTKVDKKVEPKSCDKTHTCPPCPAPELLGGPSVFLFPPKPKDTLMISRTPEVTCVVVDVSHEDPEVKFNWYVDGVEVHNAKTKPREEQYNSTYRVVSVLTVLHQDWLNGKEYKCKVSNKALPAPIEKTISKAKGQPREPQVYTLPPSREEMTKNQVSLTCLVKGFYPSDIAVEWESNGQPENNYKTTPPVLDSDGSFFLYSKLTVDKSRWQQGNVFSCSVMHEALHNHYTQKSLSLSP
light: DIVMTQSPATLSLSPGERATLSCTSSQSVYHANWLSWFQQKPGQPPKLLIYWASTLAYGVPSRFSGSGSGTDFTLTISSLQPEDAATYYCAGGYGGGRYAFGQGTKVEIKRTVAAPSVFIFPPSDEQLKSGTASVVCLLNNFYPREAKVQWKVDNALQSGNSQESVTEQDSKDSTYSLSSTLTLSKADYEKHKVYACEVTHQGLSSPVTKSFNRGEC
notes: Parent antibody of the Fc variants; also called MS1032LO06-SG1
Consider B1, for which the Kd (as a rule, the free concentration of one partner at which half of the binding sites on the other are occupied at equilibrium, for simple one-to-one binding) in experiment [1] stood at 5100 nM; in experiment [2], 1100 nM; in experiment [3], 3200 nM; in experiment [4], 360 nM; in experiment [5] it was 810 nM; in experiment [6], 4600 nM. Besides, the Kd came out at 690 nM in experiment [7] and 1800 nM in experiment [8].
